Measurements: paper PMC10397247
Values belong to the binder of their own block, whether it stands above or below them.

Columns and labels:
4H3330-AA = biological target: T1, 4H3330-AA; assay: two-hybrid library CCmax;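 note: natural log of median RNA to DNA barcode read ratio; higher means stronger binding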
T1 chain: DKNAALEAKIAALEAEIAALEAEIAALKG

4H716-AA = biological target: T2, 4H716-AA; assay: two-hybrid library CCmax; details: mean of both orientations;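 note: natural log of median RNA to DNA barcode read ratio; higher means stronger binding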
T2 chain: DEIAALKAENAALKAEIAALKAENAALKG

4H733-AA = biological target: T3, 4H733-AA; assay: two-hybrid library CCmax; details: mean of both orientations;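 note: natural log of median RNA to DNA barcode read ratio; higher means stronger binding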
T3 chain: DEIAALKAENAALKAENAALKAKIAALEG

4H807-AA = biological target: T4, 4H807-AA; assay: two-hybrid library CCmax; details: mean of both orientations;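 note: natural log of median RNA to DNA barcode read ratio; higher means stronger binding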
T4 chain: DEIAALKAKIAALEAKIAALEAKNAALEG

APC1015-AA = biological target: T5, APC1015-AA; assay: two-hybrid library CCmax; details: mean of both orientations;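 note: natural log of median RNA to DNA barcode read ratio; higher means stronger binding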
T5 chain: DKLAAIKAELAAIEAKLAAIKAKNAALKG

APC1434-AA = biological target: T6, APC1434-AA; assay: two-hybrid library CCmax; details: mean of both orientations;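 note: natural log of median RNA to DNA barcode read ratio; higher means stronger binding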
T6 chain: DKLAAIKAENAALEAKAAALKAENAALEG

APC2237-AA = biological target: T7, APC2237-AA; assay: two-hybrid library CCmax; details: mean of both orientations
T7 chain: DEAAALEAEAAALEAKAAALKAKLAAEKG

APC232-AA = biological target: T8, APC232-AA; assay: two-hybrid library CCmax; details: mean of both orientations
T8 chain: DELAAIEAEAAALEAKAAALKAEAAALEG

APC2405-AA = biological target: T9, APC2405-AA; assay: two-hybrid library CCmax; details: mean of both orientations
T9 chain: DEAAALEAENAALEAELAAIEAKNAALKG

APC3645-AA = biological target: T10, APC3645-AA; assay: two-hybrid library CCmax; details: mean of both orientations
T10 chain: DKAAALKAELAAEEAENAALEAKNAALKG

APC4011-AA = biological target: T11, APC4011-AA; assay: two-hybrid library CCmax; details: mean of both orientations
T11 chain: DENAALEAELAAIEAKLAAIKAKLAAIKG

APC4264-AA = biological target: T12, APC4264-AA; assay: two-hybrid library CCmax; details: mean of both orientations
T12 chain: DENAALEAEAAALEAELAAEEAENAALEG

APC4436-AA = biological target: T13, APC4436-AA; assay: two-hybrid library CCmax; details: mean of both orientations
T13 chain: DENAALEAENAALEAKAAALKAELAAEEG

APC5383-AA = biological target: T14, APC5383-AA; assay: two-hybrid library CCmax; details: mean of both orientations
T14 chain: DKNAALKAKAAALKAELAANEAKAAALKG

APC6108-AA = biological target: T15, APC6108-AA; assay: two-hybrid library CCmax; details: mean of both orientations
T15 chain: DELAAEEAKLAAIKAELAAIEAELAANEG

APC7099-AA = biological target: T16, APC7099-AA; assay: two-hybrid library CCmax; details: mean of both orientations
T16 chain: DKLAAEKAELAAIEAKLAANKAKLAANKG

APC8191-AA = biological target: T17, APC8191-AA; assay: two-hybrid library CCmax; details: mean of both orientations
T17 chain: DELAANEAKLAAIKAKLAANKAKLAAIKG

APC8910-AA = biological target: T18, APC8910-AA; assay: two-hybrid library CCmax
T18 chain: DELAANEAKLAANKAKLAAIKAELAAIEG

APC9096-AA = biological target: T19, APC9096-AA; assay: two-hybrid library CCmax; details: mean of both orientations
T19 chain: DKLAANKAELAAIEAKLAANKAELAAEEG

APC9319-AA = biological target: T20, APC9319-AA; assay: two-hybrid library CCmax; details: mean of both orientations
T20 chain: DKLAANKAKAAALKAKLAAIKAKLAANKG

P4bHq = biological target: T21, P4bHq; assay: two-hybrid library CCNG1
T21 chain: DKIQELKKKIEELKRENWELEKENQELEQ

P5bHq = biological target: T22, P5bHq; assay: two-hybrid library CCNG1
T22 chain: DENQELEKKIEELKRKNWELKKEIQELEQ

P6bHq = biological target: T23, P6bHq; assay: two-hybrid library CCNG1
T23 chain: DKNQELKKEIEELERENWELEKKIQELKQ

P7bHq = biological target: T24, P7bHq; assay: two-hybrid library CCNG1
T24 chain: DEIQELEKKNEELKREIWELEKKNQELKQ

P8bHq = biological target: T25, P8bHq; assay: two-hybrid library CCNG1
T25 chain: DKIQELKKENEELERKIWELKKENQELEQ

P9bHq = biological target: T26, P9bHq; assay: two-hybrid library CCNG1
T26 chain: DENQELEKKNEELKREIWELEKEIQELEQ

- interaction score (4H3330-AA): 1.32
- interaction score (4H716-AA): -1.14
- interaction score (4H733-AA): -1.48
- interaction score (4H807-AA): -1.35
- interaction score (APC1015-AA): -0.658
- interaction score (APC1434-AA): -1.62
- interaction score (APC2237-AA): -0.433
- interaction score (APC232-AA): -1.1
- interaction score (APC2405-AA): -1.07
- interaction score (APC3645-AA): -1.25
- interaction score (APC4011-AA): 2.04
- interaction score (APC4264-AA): -1.37
- interaction score (APC4436-AA): -1.42
- interaction score (APC5383-AA): -1.16
- interaction score (APC6108-AA): 0.0413
- interaction score (APC7099-AA): -1.98
- interaction score (APC8191-AA): 1.43
- interaction score (APC8910-AA): -0.0896
- interaction score (APC9096-AA): -1.65
- interaction score (APC9319-AA): 0.302
Binder: DKNAALEAKIAALEAEIAALEAEIAALKG [4H3330-AA]

- interaction score (P4bHq): -0.613
- interaction score (P5bHq): -1.27
- interaction score (P6bHq): -0.00957
- interaction score (P7bHq): -1.11
- interaction score (P8bHq): -0.273
- interaction score (P9bHq): -0.875
Binder: DKIQELKKKIEELKRENWELEKENQELEQ [P4bHq]
